{"source": "patent US20230331821A1", "about": "(VIR BIOTECHNOLOGY, published 2023)", "binders": {"B1": {"name": "S315 rIgG1-MLNS (antibody, V domains shown)", "VH": "EVQLVESGGGLVQPGGSLRLSCAASGFTFSNYWMTWVRQAPGKGLEWVANIKQDGSEKYYVDSVKGRFTISRDNAKNSLYLQMNSLRAEDTAVYYCARDLWWNDQAHYYGMDVWGQGTTVTVSS", "VL": "SYELTQPPSVSVSPGQTARITCSGDAFPNQYAYWYQQKPGQAPVMLIYKDSERPSGIPERFFGSSSGTTVTLTIRGVQAEDEADYYCQSADSSGTVFGGGTKLTVL"}, "B2": {"name": "SARS-CoV-2 S303 mAb (B cell supernatant) (antibody, V domains shown)", "VH": "EVQLVESGGGLVKPGGSLRLSCAASGFTFLTYSMNWVRQTPGKRLQWVSAISGSGGATYYADSVKGRFTISRDNSKNTLYLQMNTVTADDTAIYFCARERDDIFPMGLNAFDIWGQGAMVIVSS", "VL": "DIQMTQSPSTLSASVGDRVTITCRASQSISNWLAWYQQKPGKAPKLLIYKASSLESGVPSRFSGSGSGTEFTLTISSLQPDDSATYYCQQYDTYSWTFGQGTKVEIK"}, "B3": {"name": "S303 rIgG1 (antibody, V domains shown)", "VH": "B2 VH", "VL": "B2 VL"}, "B4": {"name": "S303-rIgG1-LS (antibody, V domains shown)", "VH": "B2 VH", "VL": "B2 VL"}, "B5": {"name": "SARS-CoV-2 S306 mAb (B cell supernatant) (antibody, V domains shown)", "VH": "QVQLVQSGAEVKKPGASVKVSCKASTYTFTSFGISWVRQAPGQGLEWMGWITTYSGDTNYAQKFQGRVTMTTDTSTNTAYMELRSLRSDDTAVYYCASDYFDSSGYYHSFDYWGQGTLVTVSS", "VL": "EIVLTQSPDTLSLSPGERATLSCRASQSVSSYLAWYQQRPGQAPRLLIYDASKRATGIPARFSGSGSGTDFTLTISSLEPEDFAVYYCQQRSNWPPGCSFGQGTKVEIK"}, "B6": {"name": "S306 (antibody, V domains shown)", "VH": "B5 VH", "VL": "B5 VL"}, "B7": {"name": "S310 (antibody, V domains shown)", "VH": "QVQLVQSGAELKKPGSSVKVSCKASGGTFNSYSFNWVRQAPGQGLEWLGGIIPVLGTSNYAQKFQGRVAVTADEFTTTAYMELSSLRSEDTAVYYCATRTYDSSGYRPYYYGLDVWGQGTPVTVSS", "VL": "QSALTQPASVSGSPGQSITISCTGTSSDVGSYNLVSWYQQRPGKAPELMIYEVTKRPSGLSNRFSGSKSGNTASLTISGLQAEDEADYYCCSYAGSDTVIFGGGTKVTVL"}, "B8": {"name": "SARS-CoV-2 S304 mAb (B cell supernatant) (antibody, V domains shown)", "VH": "EVQLVESGGGLVQPGGSLRLSCAASGFTFSSYDMHWVRQTTGKGLEWVSTIGTAGDTYYPDSVKGRFTISREDAKNSLYLQMNSLRAGDTAVYYCARGDSSGYYYYFDYWGQGTLLTVSS", "VL": "DIQMTQSPSSLSAAVGDRVTITCRASQSIGSYLNWYQQKPGKAPKLLIYAASSLQSGVPSRFSGSGSGTDFTLTISSLQPEDFAIYYCQQSYVSPTYTFGPGTKVDIK"}, "B9": {"name": "S304-rIgG1-LS (antibody, V domains shown)", "VH": "B8 VH", "VL": "B8 VL"}, "B10": {"name": "S110 (antibody, V domains shown)", "VH": "QVQLVESGGGLVQAGGSLRLSCAASGRTFSSAGMAWFRQAPGKEREFVATSNWNGGDTDYADSVKGRFTISRDNAKNTVYLQMNNLKPEDTAVYYCAAHLQKYGGDYYARIWGQGTQVTVS"}, "B11": {"name": "SARS-CoV-2 S308 mAb (B cell supernatant) (antibody, V domains shown)", "VH": "QVQLVESGGGVVQPGRSLRLSCAASRFTFSSYGMHWVRQAPGKGLEWVAVIWHDGNNKHYGDSVKGRVTISRDNSKNTLYLQMTSLRAEDTAVYYCARAVTTFKGSGRARMRGMDVWGQGTTVTVSS", "VL": "DIQLTQSPSFLSASVGDRVTITCRASQGINTYLAWYQQKPGKAPKLLIYAASTLQSGVPSRFSGSGSGTEFTLTISSLQPEDFATYYCQHLDTYPFTFGPGTKVDIK"}}, "key": {"[1]": {"target": "T1, SARS-CoV-2 RBD (produced in house in Expi-CHO cells; residues 331-550 of spike) (SARS-CoV-2 BetaCoV/Wuhan-Hu-1/2019, UniProt P0DTC2 331-550)", "assay": "ELISA, antigen coated on the plate, OD 405 nm"}, "[2]": {"target": "T1, SARS-CoV-2 RBD (produced in house in …)", "assay": "ELISA, antigen coated on the plate, OD 405 nm", "remark": "listed apart in the source"}, "[3]": {"target": "T2, SARS-CoV-2 Spike (S) protein, strain BetaCoV/Wuhan-Hu-1/2019, full length (SARS-CoV-2 Wuhan-Hu-1, UniProt P0DTC2 14-1273)", "assay": "cell-based or functional assay"}, "[4]": {"target": "T2, SARS-CoV-2 Spike (S) protein, strain …"}, "[5]": {"target": "His-tagged RBD of SARS-CoV-2 (SARS-CoV-2 BetaCoV/Wuhan-Hu-1/2019, UniProt P0DTC2 331-550)"}, "[6]": {"target": "His-tagged RBD of SARS-CoV-1 (SARS-CoV-1, UniProt P59594 306-527)"}, "[7]": {"target": "T1, SARS-CoV-2 RBD (produced in house in …)", "assay": "BLI (Octet), antibody on protein A sensors, RBD in solution, global fit"}, "[8]": {"target": "T3, SARS-CoV-1 RBD (Sino Biological) (SARS-CoV-1, UniProt P59594 306-527)", "assay": "BLI (Octet), antibody on protein A sensors, RBD in solution, global fit"}, "[9]": {"target": "T2, SARS-CoV-2 Spike (S) protein, strain …", "assay": "flow cytometry, ExpiCHO cells expressing SARS-CoV-2 S; % positive cells"}, "[10]": {"target": "SARS-CoV-1 Spike (S) protein, strain SARS, on ExpiCHO cells (SARS-CoV (SARS-CoV-1), strain SARS, UniProt P59594 14-1255)", "assay": "flow cytometry, ExpiCHO cells expressing SARS-CoV-1 S; % positive cells"}, "[11]": {"target": "T1, SARS-CoV-2 RBD (produced in house in …)", "assay": "ELISA, antigen coated on the plate, OD 405 nm", "remark": "listed apart in the source"}, "[12]": {"target": "T3, SARS-CoV-1 RBD (Sino Biological)", "assay": "ELISA, antigen coated on the plate, OD 405 nm"}, "[13]": {"target": "T1, SARS-CoV-2 RBD (produced in house in …)", "assay": "ELISA, antigen coated on the plate, OD 405 nm", "remark": "listed apart in the source"}, "[14]": {"target": "T3, SARS-CoV-1 RBD (Sino Biological)", "assay": "ELISA, antigen coated on the plate, OD 405 nm", "remark": "listed apart in the source"}, "[15]": {"target": "T1, SARS-CoV-2 RBD (produced in house in …)", "assay": "ELISA, antigen coated on the plate, OD 405 nm", "remark": "listed apart in the source"}, "[16]": {"target": "T1, SARS-CoV-2 RBD (produced in house in …)", "assay": "ELISA, antigen coated on the plate, OD 405 nm", "remark": "listed apart in the source"}, "[17]": {"target": "T4, SARS-CoV-1 RBD (Sino Biological) (SARS-CoV-1, UniProt P59594 306-527)", "assay": "ELISA, antigen coated on the plate, OD 405 nm", "remark": "listed apart in the source"}, "[18]": {"target": "T4, SARS-CoV-1 RBD (Sino Biological)", "assay": "ELISA, antigen coated on the plate, OD 405 nm", "remark": "listed apart in the source"}}, "note": "Read-outs that look alike come from different tables or passages of the source."}
{"binder": "B1", "values": [{"measurement": "EC50 (read off the curve)", "setting": "[1]", "value": "~0.2", "unit": "µg/mL"}, {"measurement": "EC50 (read off the curve)", "setting": "[2]", "value": "~0.2", "unit": "µg/mL"}]}
{"binder": "B2", "values": [{"measurement": "Percent neutralization of infection, dilution 2", "setting": "[3]", "value": 6, "unit": "%"}, {"measurement": "Percent neutralization of infection, dilution 6", "setting": "[3]", "value": 5, "unit": "%"}, {"measurement": "Percent neutralization of infection, dilution 18", "setting": "[3]", "value": 2, "unit": "%"}, {"measurement": "Percent neutralization of infection, dilution 54", "setting": "[3]", "value": 12, "unit": "%"}]}
{"binder": "B3", "values": [{"measurement": "EC50", "setting": "[4]", "value": 0.383, "unit": "µg/mL"}, {"measurement": "Kd", "setting": "[5]", "value": 23.6, "unit": "nM"}, {"measurement": "Kd", "setting": "[6]", "value": "< 0.001", "unit": "nM"}, {"measurement": "Kd", "setting": "[7]", "value": 23.6, "unit": "nM"}, {"measurement": "Kd", "setting": "[8]", "value": "< 0.001", "unit": "nM"}, {"measurement": "EC50 (read off the curve)", "setting": "[9]", "value": "~0.4", "unit": "µg/mL"}, {"measurement": "EC50 (read off the curve)", "setting": "[10]", "value": "~0.001", "unit": "µg/mL"}]}
{"binder": "B4", "values": [{"measurement": "EC50 (read off the curve)", "setting": "[11]", "value": "~0.09", "unit": "µg/mL"}, {"measurement": "EC50 (read off the curve)", "setting": "[12]", "value": "~0.03", "unit": "µg/mL"}, {"measurement": "EC50 (read off the curve)", "setting": "[13]", "value": "~0.09", "unit": "µg/mL"}, {"measurement": "EC50 (read off the curve)", "setting": "[14]", "value": "~0.03", "unit": "µg/mL"}]}
{"binder": "B5", "values": [{"measurement": "Percent neutralization of infection, dilution 2", "setting": "[3]", "value": -19, "unit": "%"}, {"measurement": "Percent neutralization of infection, dilution 6", "setting": "[3]", "value": 15, "unit": "%"}, {"measurement": "Percent neutralization of infection, dilution 18", "setting": "[3]", "value": -9, "unit": "%"}, {"measurement": "Percent neutralization of infection, dilution 54", "setting": "[3]", "value": 6, "unit": "%"}]}
{"binder": "B6", "values": [{"measurement": "EC50 (read off the curve)", "setting": "[10]", "value": "~0.02", "unit": "µg/mL"}]}
{"binder": "B7", "values": [{"measurement": "EC50 (read off the curve)", "setting": "[10]", "value": "~0.2", "unit": "µg/mL"}]}
{"binder": "B8", "values": [{"measurement": "Percent neutralization of infection, dilution 2", "setting": "[3]", "value": -21, "unit": "%"}, {"measurement": "Percent neutralization of infection, dilution 6", "setting": "[3]", "value": 25, "unit": "%"}, {"measurement": "Percent neutralization of infection, dilution 18", "setting": "[3]", "value": -22, "unit": "%"}, {"measurement": "Percent neutralization of infection, dilution 54", "setting": "[3]", "value": 7, "unit": "%"}]}
{"binder": "B9", "values": [{"measurement": "EC50 (read off the curve)", "setting": "[15]", "value": "~0.1", "unit": "µg/mL"}, {"measurement": "EC50 (read off the curve)", "setting": "[16]", "value": "~0.1", "unit": "µg/mL"}]}
{"binder": "B10", "values": [{"measurement": "EC50 (read off the curve)", "setting": "[17]", "value": "~0.08", "unit": "µg/mL"}, {"measurement": "EC50 (read off the curve)", "setting": "[18]", "value": "~0.08", "unit": "µg/mL"}]}
{"binder": "B11", "values": [{"measurement": "Percent neutralization of infection, dilution 2", "setting": "[3]", "value": -46, "unit": "%"}, {"measurement": "Percent neutralization of infection, dilution 6", "setting": "[3]", "value": 19, "unit": "%"}, {"measurement": "Percent neutralization of infection, dilution 18", "setting": "[3]", "value": 32, "unit": "%"}, {"measurement": "Percent neutralization of infection, dilution 54", "setting": "[3]", "value": 16, "unit": "%"}]}
